{"source": "patent EP4714974A1", "key": {"[1]": {"molecular_target": "human GPRC5D (human) (UniProt Q9NZD1)", "sequence (Q9NZD1 whole entry)": "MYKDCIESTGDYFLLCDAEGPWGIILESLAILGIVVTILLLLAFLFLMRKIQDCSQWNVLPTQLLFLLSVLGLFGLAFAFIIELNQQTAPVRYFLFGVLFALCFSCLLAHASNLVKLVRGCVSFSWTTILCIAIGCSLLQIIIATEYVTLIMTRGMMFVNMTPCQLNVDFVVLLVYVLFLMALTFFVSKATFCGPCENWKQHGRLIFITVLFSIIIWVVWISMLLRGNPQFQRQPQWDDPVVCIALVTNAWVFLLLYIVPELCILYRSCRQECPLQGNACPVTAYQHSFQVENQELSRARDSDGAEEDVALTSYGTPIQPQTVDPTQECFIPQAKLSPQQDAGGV", "assay": "flow cytometry on NCI-H929 cells (negative control)"}, "[2]": {"molecular_target": "human GPRC5D (human) (UniProt Q9NZD1)", "assay": "flow cytometry on human GPRC5D-CHOK1 cells (negative control)"}, "[3]": {"molecular_target": "cynomolgus monkey GPRC5D (cynomolgus monkey)", "assay": "flow cytometry on cynomolgus monkey GPRC5D-CHOK1 cells (negative control)"}, "[4]": {"molecular_target": "human GPRC5D (human) (UniProt Q9NZD1)", "assay": "flow cytometry on human GPRC5D-CHOK1 cells (negative control)", "remark": "listed apart in the source"}}, "data": [{"substance": "IgG1 AA (negative control, purchased from Biointron, Cat. No. B109802) (antibody)", "values": [{"measurement": "Top mean fluorescence intensity (Top MFI)", "setting": "[1]", "result": 165, "unit": "MFI"}, {"measurement": "Top mean fluorescence intensity (Top MFI)", "setting": "[2]", "result": 1610, "unit": "MFI"}, {"measurement": "Top mean fluorescence intensity (Top MFI)", "setting": "[3]", "result": 2040, "unit": "MFI"}, {"measurement": "Top mean fluorescence intensity (Top MFI)", "setting": "[4]", "result": 51, "unit": "MFI"}]}]}
